This is an account of results in paper PMC8515945 (Microbiology Spectrum, 2021).

For this assay, the target named is SARS-CoV-2 spike protein receptor-binding domain (residues 319 to 533), wild type (SARS-CoV-2, UniProt P0DTC2). The assay can be described thus: SPR. To be noted: both partners purified.

B1: nCoV617 (full-length recombinant human IgG1) (antibody, V domains shown)
VH: QVQLVESGGGVVQPGRSLRLSCAASGFTFSSYAMHWVRQAPGKGLEWVALISYDGSNKYADSVKGRFTISRDNSKNTLYLQMNSLRAEDTAVYYCARGLGLRFLEWPISSYWGQGTLVTVSS
VL: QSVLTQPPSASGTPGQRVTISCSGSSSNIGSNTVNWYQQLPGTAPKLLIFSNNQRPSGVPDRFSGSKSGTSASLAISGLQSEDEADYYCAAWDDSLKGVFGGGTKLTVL
notes: also called MAb nCoV617; NAb nCoV617
As to B1, the Kd (as a rule, the free concentration of one partner at which half of the binding sites on the other are occupied at equilibrium, for simple one-to-one binding) was 4.23 nM. That is a single-digit nanomolar value.
